Reference: patent US20130209454A1
Substitutions are numbered along the chain they refer to. Numbers in names are those of the source.

B1: NIH45-46^G54W(HC), S28Y(LC) (antibody, V domains shown)
VH: QVRLSQSGGQMKKPGESMRLSCRASGYEFLNCPINWIRLAPGRRPEWMGWLKPRWGAVNYARKFQGRVTMTRDVYSDTAFLELRSLTSDDTAVYFCTRGKYCTARDYYNWDFEHWGRGAPVTVSS
VL: EIVLTQSPATLSLSPGETAIISCRTSQYGSLAWYQQRPGQAPRLVIYSGSTRAAGIPDRFSGSRWGADYNLSISNLESGDFGVYYCQQYEFFGQGTKVQVDI
B2: NIH45-46^G54W (antibody, V domains shown)
VH: B1 VH
VL: B1 VL with Y28S
B3: NIH45-46^G54W IgG (antibody, name in Kabat numbering, V domains shown)
VH: B1 VH
VL: B1 VL with Y28S
B4: NIH45-46^G54W(HC) S28Y(LC) (antibody, V domains shown)
VH: B1 VH
VL: B1 VL

What was measured:
[1] = target: HIV-1 Env of strain 246F C1G (HIV-1); test: cell-based or functional assay
[2] = target: HIV-1 Env of strain 249M B10 (HIV-1); test: cell-based or functional assay
[3] = target: HIV-1 Env of strain 3365.v2.c2 (HIV-1); test: cell-based or functional assay
[4] = target: HIV-1 Env of strain 6244_13_B5_4576 (HIV-1); test: cell-based or functional assay
[5] = target: HIV-1 Env of strain 7030102001E5(Rev) (HIV-1); test: cell-based or functional assay
[6] = target: HIV-1 Env of strain CNE8 (HIV-1); test: cell-based or functional assay
[7] = target: HIV-1 Env of strain X1632_S2_B10 (HIV-1); test: cell-based or functional assay
[8] = target: Env of HIV-1 strain 249M B10 (HIV-1); test: cell-based or functional assay
[9] = target: Env of HIV-1 strain 263-8 (HIV-1); test: cell-based or functional assay
[10] = target: Env of HIV-1 strain 3016.v5.c45 (HIV-1); test: cell-based or functional assay
[11] = target: Env of HIV-1 strain 3415.v1.c1 (HIV-1); test: cell-based or functional assay
[12] = target: Env of HIV-1 strain 6480.v4.c25 (HIV-1); test: cell-based or functional assay
[13] = target: Env of HIV-1 strain 89-F1_2_25 (HIV-1); test: cell-based or functional assay
[14] = target: Env of HIV-1 strain 928-28 (HIV-1); test: cell-based or functional assay
[15] = target: Env of HIV-1 strain BJOX015000.11.5 (HIV-1); test: cell-based or functional assay
[16] = target: Env of HIV-1 strain BJOX028000.10.3 (HIV-1); test: cell-based or functional assay
[17] = target: Env of HIV-1 strain CNE21 (HIV-1); test: cell-based or functional assay
[18] = target: Env of HIV-1 strain CNE5 (HIV-1); test: cell-based or functional assay
[19] = target: Env of HIV-1 strain CNE58 (HIV-1); test: cell-based or functional assay
[20] = target: Env of HIV-1 strain HIV-16845-2.22 (HIV-1); test: cell-based or functional assay
[21] = target: Env of HIV-1 strain MS208.A1 (HIV-1); test: cell-based or functional assay
[22] = target: Env of HIV-1 strain Q842.d12 (HIV-1); test: cell-based or functional assay
[23] = target: Env of HIV-1 strain REJO4541.67 (HIV-1); test: cell-based or functional assay
[24] = target: Env of HIV-1 strain THRO4156.18 (HIV-1); test: cell-based or functional assay
[25] = target: Env of HIV-1 strain TRJO4551.58 (HIV-1); test: cell-based or functional assay
[26] = target: Env of HIV-1 strain TRO.11 (HIV-1); test: cell-based or functional assay
[27] = target: Env of HIV-1 strain ZM214M.PL15 (HIV-1); test: cell-based or functional assay
[28] = target: Env of HIV-1 strain ZM53M.PB12 (HIV-1); test: cell-based or functional assay
[29] = target: G459D (HIV-1)
[30] = target: HIV-1 strain YU2 gp160 (gp120) (HIV-1) (UniProt P35961)
[31] = target: N280D (HIV-1)
[32] = target: N280Y (HIV-1)
[33] = target: R456W (HIV-1)
[34] = target: YU2 gp160 point mutant at 279gp120 (HIV-1) (UniProt P35961)
[35] = target: YU2 gp160 point mutant at 458gp120 (HIV-1) (UniProt P35961)
[36] = target: YU2 gp160 point mutant at 458gp120 (HIV-1) (UniProt P35961); test: cell-based or functional assay
[37] = target: Env of HIV-1 strain X1632_S2_B10 (HIV-1); test: cell-based or functional assay

Binder	IC50, pseudovirus neutralization [1] [µg/mL]	IC50, pseudovirus neutralization [2] [ng/mL]	IC50, pseudovirus neutralization [3] [µg/mL]	IC50, pseudovirus neutralization [4] [µg/mL]	IC50, pseudovirus neutralization [5] [µg/mL]	IC50, pseudovirus neutralization [6] [µg/mL]	IC80 [8] [µg/mL]	IC80 [9] [µg/mL]	IC80 [10] [µg/mL]	IC80 [11] [µg/mL]	IC80 [12] [µg/mL]	IC80 [13] [µg/mL]	IC80 [14] [µg/mL]	IC80 [15] [µg/mL]	IC80 [16] [ng/mL]	IC80 [17] [µg/mL]	IC80 [18] [µg/mL]	IC80 [19] [µg/mL]	IC80 [20] [µg/mL]	IC80 [21] [µg/mL]	other results
B1	0.036	1	0.014	0.03	0.038	0.038	–	–	–	–	–	–	–	–	–	–	–	–	–	–	IC50, pseudovirus neutralization [7]: 1 ng/mL
B2	0.315	1	0.01	0.005	0.042	0.055	0.019	0.025	15.4	0.023	0.021	> 50	0.25	0.239	2	0.16	0.116	0.05	2.1	0.17	IC80 [22]: 0.025 µg/mL; IC80 [23]: 0.013 µg/mL; IC80 [24]: 1.81 µg/mL; IC80 [25]: 0.05 µg/mL; IC80 [26]: 0.13 µg/mL; IC80 [27]: 0.15 µg/mL; IC80 [28]: 0.16 µg/mL
B3	–	–	–	–	–	–	–	–	–	–	–	–	–	–	–	–	–	–	–	–	IC50, pseudovirus neutralization (TZM-bl, luciferase) [29]: 0.01 µg/mL; IC50, pseudovirus neutralization (TZM-bl, luciferase) [30]: 8 ng/mL; IC50, pseudovirus neutralization (TZM-bl, luciferase) [31]: > 50 µg/mL; IC50, pseudovirus neutralization (TZM-bl, luciferase) [32]: > 50 µg/mL; IC50, pseudovirus neutralization (TZM-bl, luciferase) [33]: 6 µg/mL; IC50, pseudovirus neutralization (TZM-bl, luciferase) [34]: > 50 µg/mL; IC50, pseudovirus neutralization (TZM-bl, luciferase) [35]: 18 µg/mL; decrease of neutralization potency against YU2 [36]: > 1500 fold
B4	–	–	–	–	–	–	0.017	0.067	0.037	0.054	0.058	> 50	0.159	0.308	6	0.047	0.137	0.042	1.44	0.089	IC80 [22]: 0.017 µg/mL; IC80 [23]: 0.01 µg/mL; IC80 [24]: 2.74 µg/mL; IC80 [25]: 0.02 µg/mL; IC80 [26]: 0.079 µg/mL; IC80 [37]: 7 ng/mL; IC80 [27]: 0.258 µg/mL; IC80 [28]: 0.257 µg/mL
